In the supplement of paper PMC10567573:

B1: ADAMTS4 (parent)
chain: HVDPEEPWSPCSARFITDFLDNGY
B2: NFE2L1 (parent)
chain: TLDGYGIHPKSIDLDNYFTARRLL

Variants of: B1
Experiment: protein stability index of a GFP-peptide fusion (GPS, HEK-293T) (PSI 1-6); higher = more stable
Conditions: c terminus: a fixed tail appended
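Note: lentivirally expressed fusions sorted by FACS into six bins by GFP to DsRed ratio, PSI derived from sequencing read proportions per bin multiplied by bin number.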

Protein stability index, by site and new letter:
E5: A 2.37, D 1.9, C 2.19, N 1.96, W 2.79, V 1.92, P 2.29, T 2.96, Y 3.13, G 2.13, F 2.72, M 2.17, I 2.32, K 2.58, L 2.31, S 2.35, H 1.66, Q 2.43, R 2.77
E6: A 1.85, D 1.76, C 2.21
V2: I 2.56, Y 2.05, L 2.23, F 2.14, M 2.75, E 3.19, H 2.37, G 2.9, T 2.2, C 2.09, P 2.23, R 2.4, S 2.55, D 3, Q 2.16, K 2.62, W 2.08, N 2.48, A 2.36
P4: S 1.9, Y 1.98, D 2.11, E 2.07, F 1.63, M 1.77, C 2.23, R 2.42, I 1.77, N 1.95, G 2.9, T 1.8, V 1.62, H 2.21, Q 1.9, W 1.69, L 1.63, K 1.87, A 1.63
H1: Q 2.31, P 2.57, S 2.54, F 3.17, D 2.4, R 2.26, L 1.78, V 2.04, W 1.78, G 2.81, K 1.91, T 2.77, M 1.95, A 2.09, C 2.17, E 2.76, Y 2.29, N 2.37, I 2.1
D3: E 1.75, Y 1.11, C 2.63, F 1.79, Q 2.49, V 1.77, H 1.98, K 1.76, T 2.04, N 2.21, M 1.89, A 1.69, W 1.34, R 1.8, P 1.85, L 1.78, S 2.48, I 1.55, G 2.78

Variants of: B2
Experiment: as above
Conditions: c terminus: a fixed tail appended

Protein stability index: each site, then its substitutions
L23: C 2.41, P 2.54, W 1.82, Y 2.33, R 3.19, E 2.6, T 2.17, M 2.03, A 2.62, D 2.4, I 1.64, K 3.26, S 3.05, N 2.32, G 2.42, Q 2.71, F 1.93, V 1.66, H 2.18
R22: G 2.53, T 2.25, N 1.85, I 3.54, F 1.6, C 2.16, H 2.2, V 1.71, Y 1.89, P 1.97, A 1.49, D 2.05, Q 1.89, K 2.2, S 1.69, E 1.88, W 2.21
L24: M 2.5, F 2.42, K 2.9, D 2.69, R 3.05, S 2.48, P 2.56, Y 1.72, W 2.31, N 2.48, Q 1.85, A 2.26, H 2.14, T 2.42, I 1.75, E 2.79, V 2.08, C 1.84, G 2.56
R21: V 2.72, C 1.7, T 1.56, D 2.67, Y 3.26, L 1.9, S 1.69, G 2.4, F 1.77, I 1.6, P 2.05, Q 1.71, A 1.67, N 1.8
